In patent US20230141177A1:

Key:
[1] = target: AβO in the low molecular weight (LMW) fraction of pooled soluble human AD brain extract (~8 kDa to ~70 kDa) (human) (UniProt P05067); test: SPR; BRU on LMW fraction divided by BRU on HMW fraction; Study 1
[2] = target: AβO in the low molecular weight (LMW) fraction of pooled soluble human AD brain extract (~8 kDa to ~70 kDa) (human) (UniProt P05067); test: SPR, immobilized antibody, brain extract fraction at 100 µg/ml injected; Study 1
[3] = target: Aβ aggregates in the high molecular weight (HMW) fraction of pooled soluble human AD brain extract (>70 kDa to ~700 kDa) (human) (UniProt P05067); test: as above
[4] = target: AβO in the low molecular weight (LMW) fraction of pooled soluble human AD brain extract (~8 kDa to ~70 kDa) (human) (UniProt P05067); test: SPR; BRU on LMW fraction divided by BRU on HMW fraction; Study 3
[5] = target: AβO in the low molecular weight (LMW) fraction of pooled soluble human AD brain extract (~8 kDa to ~70 kDa) (human) (UniProt P05067); test: SPR; BRU on LMW fraction divided by BRU on HMW fraction; Study 2
[6] = target: AβO in the low molecular weight (LMW) fraction of pooled soluble human AD brain extract (~8 kDa to ~70 kDa) (human) (UniProt P05067); test: SPR, immobilized antibody, brain extract fraction at 100 µg/ml injected; Study 2
[7] = target: Aβ aggregates in the high molecular weight (HMW) fraction of pooled soluble human AD brain extract (>70 kDa to ~700 kDa) (human) (UniProt P05067); test: as above
[8] = target: AβO in the low molecular weight (LMW) fraction of pooled soluble human AD brain extract (~8 kDa to ~70 kDa) (human) (UniProt P05067); test: SPR, immobilized antibody, brain extract fraction at 100 µg/ml injected; Study 3
[9] = target: Aβ aggregates in the high molecular weight (HMW) fraction of pooled soluble human AD brain extract (>70 kDa to ~700 kDa) (human) (UniProt P05067); test: as above

Row | Binder | LMW/HMW ratio [1] | Binding to LMW (BRU) [2] | Binding to HMW (BRU) [3] | LMW/HMW ratio [4] | LMW/HMW ratio [5] | Binding to LMW (BRU) [6] | Binding to HMW (BRU) [7] | Binding to LMW (BRU) [8] | Binding to HMW (BRU) [9]
1 | parental antibody, PMN310 humanized antibody variant VH2/Vk5 (human IgG4 S241P / kappa) (antibody, V domains shown) VH: QVQLVQSGAEVKKPGASVKMSCKASGYSFTSYWINWVKQRPGQGLEWIGDVHPGRGVSTYNAKFKSRATLTLDTSISTAYMELSSLRSEDTAVYYCSRSHGNTYWFFDVWGQGTTVTVSS VL: DVLMTQSPLSLPVTLGQPASISCRSSQSIVHSNGNTYLEWYQQRPGQSPRLLIYKVSNRFSGVPDRFSGSGSGTDFTLKISRVEAEDVGVYYCFQGSHVPFTFGQGTKLEIKR | 1 | 27 BRU | 27 BRU | 1.52 | 1.31 | 17.7 BRU | 13.5 BRU | 7.6 BRU | 5 BRU
2 | Clone 14 (affinity matured VH with parental Vk, human IgG4 S241P / kappa) (antibody, V domains shown) VH: QVQLVQSGAEVKKPGASVKMSCKASGYSFTSYWINWVKQRPGQGLEWIGDVHPGRGVSTYNAKFKSRATLTLDTSISTAYMELSSLRSEDTAVYYCAKSDASGYWFFDVWGQGTTVTVSS VL: DVLMTQSPLSLPVTLGQPASISCRSSQSIVHSNGNTYLEWYQQRPGQSPRLLIYKVSNRFSGVPDRFSGSGSGTDFTLKISRVEAEDVGVYYCFQGSHVPFTFGQGTKLEIKR | 1.1 | 18 BRU | 16 BRU | 1.45 | 1.47 | 11.1 BRU | 7.55 BRU | 6.34 BRU | 4.38 BRU

Other lines, results leading:

Row | LMW/HMW ratio [1] | Binding to LMW (BRU) [2] | Binding to HMW (BRU) [3] | LMW/HMW ratio [4] | LMW/HMW ratio [5] | Binding to LMW (BRU) [6] | Binding to HMW (BRU) [7] | Binding to LMW (BRU) [8] | Binding to HMW (BRU) [9] | Binder
3 | 1.32 | 28 BRU | 21 BRU | 1.54 | 1.55 | 17.3 BRU | 11.2 BRU | 10.1 BRU | 6.77 BRU | Clone 4 (affinity matured VH with parental Vk, human IgG4 S241P / kappa) (antibody, V domains shown) VH: QVQLVQSGAEVKKPGASVKMSCKASGYSFTSYWINWVKQRPGQGLEWIGDVHPGRGVSTYNAKFKSRATLTLDTSISTAYMELSSLRSEDTAVYYCARVSPTGYWFFDVWGQGTTVTVSS VL: DVLMTQSPLSLPVTLGQPASISCRSSQSIVHSNGNTYLEWYQQRPGQSPRLLIYKVSNRFSGVPDRFSGSGSGTDFTLKISRVEAEDVGVYYCFQGSHVPFTFGQGTKLEIKR
4 | 1 | 15 BRU | 15 BRU | 1.2 | 1.43 | 9.42 BRU | 6.57 BRU | 9.45 BRU | 7.88 BRU | Clone 5 (affinity matured VH with parental Vk, human IgG4 S241P / kappa) (antibody, V domains shown) VH: QVQLVQSGAEVKKPGASVKMSCKASGYSFTSYWINWVKQRPGQGLEWIGDVHPGRGVSTYNAKFKSRATLTLDTSISTAYMELSSLRSEDTAVYYCARGALSPYWFFDVWGQGTTVTVSS VL: DVLMTQSPLSLPVTLGQPASISCRSSQSIVHSNGNTYLEWYQQRPGQSPRLLIYKVSNRFSGVPDRFSGSGSGTDFTLKISRVEAEDVGVYYCFQGSHVPFTFGQGTKLEIKR
